Laboratory results published in patent US6342588 (CAMBRIDGE ANTIBODY TECHNOLOGY, dated 2002).

Biological target: recombinant TGFβ1 (R and D Systems) (UniProt P01137 279-390)
Assay: method not stated

Chain of recombinant TGFβ1 (R and D Systems) (P01137 279-390 limits assumed): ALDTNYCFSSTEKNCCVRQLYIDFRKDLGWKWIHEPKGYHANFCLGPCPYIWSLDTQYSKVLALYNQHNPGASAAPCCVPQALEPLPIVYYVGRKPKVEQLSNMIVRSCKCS

Kd: 1.2 nM
B1: 31G9 scFv (scFv)
chain: QVQLVQSGGGVVQPGRSLRLSCAASGFTFSSYGMHWVRQAPGKGLEWVAVISYDGSIKYYADSVKGRFTISRDNSKNTLYLQMNSLRAEDTAVYYCARTGEYSGYDTSGVELWGQGTTVTVSSGGGGSGGGGSGGGGSDIVMTQSPSTLSASVGDRVTITCRASQGISSWLAWYQQKPGRAPKVLIYKASTLESGVPSRFSGSGSGTDFTLTISSLQPEDFATYYCQQSYSTPWTFGQGTKLEIKR
